Where only a bound is given, the exact number is not on record here.

For assay [1], the target named is T1, Recombinant human FAP (R&D systems, #3715-SE) (human).
T1 sequence: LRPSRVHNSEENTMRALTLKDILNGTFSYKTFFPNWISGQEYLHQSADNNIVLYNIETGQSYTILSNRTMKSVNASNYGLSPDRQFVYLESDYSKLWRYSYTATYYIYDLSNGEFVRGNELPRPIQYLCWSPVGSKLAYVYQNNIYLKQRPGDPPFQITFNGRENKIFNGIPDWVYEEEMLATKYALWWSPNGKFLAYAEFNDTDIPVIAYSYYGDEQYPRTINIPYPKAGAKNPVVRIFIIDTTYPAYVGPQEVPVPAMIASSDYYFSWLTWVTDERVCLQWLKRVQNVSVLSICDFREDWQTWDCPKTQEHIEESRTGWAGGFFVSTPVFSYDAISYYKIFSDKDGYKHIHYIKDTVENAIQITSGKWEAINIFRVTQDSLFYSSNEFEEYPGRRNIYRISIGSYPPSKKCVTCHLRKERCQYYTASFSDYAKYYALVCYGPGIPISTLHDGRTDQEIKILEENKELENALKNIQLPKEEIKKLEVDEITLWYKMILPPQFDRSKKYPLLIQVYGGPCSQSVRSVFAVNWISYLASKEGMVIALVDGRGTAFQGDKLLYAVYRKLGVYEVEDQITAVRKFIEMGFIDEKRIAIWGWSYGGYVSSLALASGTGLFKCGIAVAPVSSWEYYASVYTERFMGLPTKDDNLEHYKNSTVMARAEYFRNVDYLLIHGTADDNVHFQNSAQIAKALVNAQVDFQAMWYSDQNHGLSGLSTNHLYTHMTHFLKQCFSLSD

For assay [2], the target named is human fibroblast activation protein (FAP) on FAP-expressing human WI-38 fibroblasts (human). The experiment in a line: competition FACS, WI-38 cells, vs Cy5-labeled compound; A: pIC50 >8.0.

Regarding “Hex-[Cys(3MeBn)-Pro-Pro-Thr-Glu-Phe-Cys]-Asp-Ttds-Lys(DOTA)-NH2 (peptide)”, in assay [1], the pIC50 Category (Activity) was above 8 pIC50. In assay [2], this substance displayed a pIC50 Category (FACS) above 8 pIC50.
As to “Hex-[Cys(3MeBn)-Pro-Pro-Thr-Glu-Phe-Cys]-Asp-Mamb-Arg-NH2 (peptide)”, the pIC50 Category (Activity) in assay [1] is above 8 pIC50. The substance further registered a pIC50 Category (FACS) in assay [2] above 8 pIC50.
Regarding “Hex-[Cys(3MeBn)-Pro-Pro-Thr-Gln-Phe-Cys]-Asp-Ttds-Lys(DOTA)-NH2 (peptide)”, the pIC50 Category (Activity) in assay [1] was above 8 pIC50. In addition, in assay [2], the pIC50 Category (FACS) is above 8 pIC50.
For the substance “Hex-[Cys(3MeBn)-Pro-Pro-Thr-Glu-Phe-Cys]-Asp-His-Nmf-Arg-Ttds-Lys(DOTA)-NH2 (peptide)”, the pIC50 Category (Activity) in assay [1] was above 8 pIC50. For the same substance, the pIC50 Category (FACS) in assay [2] is above 8 pIC50.
Consider “Ac-Met-[Cys(3MeBn)-Pro-Pro-Thr-Glu-Phe-Cys]-Asp-his-Phe-Arg-Asp-NH2 (peptide)”, for which, in assay [1], the pIC50 Category (Activity) is above 8 pIC50. In assay [2], the pIC50 Category (FACS) is above 8 pIC50.
As to “Hex-[Cys(tMeBn(DOTA-AET))-Nmg-Pro-Thr-Gln-Phe-Cys]-OH (peptide)”, the pIC50 Category (Activity) in assay [1] was above 8 pIC50. This substance yielded a pIC50 Category (FACS) in assay [2] above 8 pIC50.
Consider “Ac-Met-[cys(3MeBn)-Pro-Pro-Thr-Glu-Phe-Cys]-Asp-His-Phe-Arg-Asp-NH2 (peptide)”, for which the pIC50 Category (Activity) in assay [1] was above 8 pIC50. In assay [2], this substance gave a pIC50 Category (FACS) above 8 pIC50.
Turning to “Hex-[Cys(3MeBn)-Pro-Pro-Ala-Glu-Phe-Cys]-NH2 (peptide)”, the pIC50 Category (Activity) in assay [1] is below 6 pIC50.
Take “Hex-[Cys(3MeBn)-Pro-Pro-Thr-Glu-Phe-Cys]-Asp-His-Ppa-arg-Ttds-Lys(DOTA)-NH2 (peptide)”: in assay [1], the pIC50 Category (Activity) is above 8 pIC50. Further, the pIC50 Category (FACS) in assay [2] was above 8 pIC50.
In the case of “Ac-Met-[Cys(3MeBn)-Pro-Pro-Thr-Glu-Phe-Cys]-Asp-His-Phe-arg-Asp-NH2 (peptide)”, in assay [1], the pIC50 Category (Activity) is above 8 pIC50. In addition, the pIC50 Category (FACS) in assay [2] is above 8 pIC50.
Take “DOTA-Ttds-Nle-[Cys(3MeBn)-Pro-Pro-Thr-Glu-Phe-Cys]-Asp-NH2 (peptide)”: the pIC50 Category (Activity) in assay [1] is above 8 pIC50.
Substance “Ac-Met-[Cys(3MeBn)-Pro-Pro-Thr-Glu-Phe-Cys]-Asp-Ala-Phe-Arg-Asp-NH2 (peptide)” displayed a pIC50 Category (FACS) in assay [2] above 8 pIC50.
As to “Hex-[Cys(3MeBn)-Pro-Pro-Thr-Glu-Phe-Cys]-Asp-His-Phe-Arg-Asp-Ttds-Lys(DOTA)-NH2 (peptide)”, the pIC50 Category (Activity) in assay [1] is above 8 pIC50. The same substance showed a pIC50 Category (FACS) in assay [2] above 8 pIC50.
Consider “Ac-Met-[Cys(3MeBn)-Pro-Pro-Thr-Glu-Phe-Cys]-Asp-His-Phe-Arg-Ala-NH2 (peptide)”, for which the pIC50 Category (Activity) in assay [1] was above 8 pIC50. The pIC50 Category (FACS) in assay [2] is above 8 pIC50.
As to “Ac-Met-[Cys(3MeBn)-Pro-Pro-Thr-Glu-Phe-Cys]-Asp-His-Phe-Arg-asp-NH2 (peptide)”, in assay [1], the pIC50 Category (Activity) is above 8 pIC50. In assay [2], this substance yielded a pIC50 Category (FACS) above 8 pIC50.
In the case of “Hex-[Cys(3MeBn)-Pro-Pro-Thr-Glu-Phe-Cys]-Asp-Gab-Arg-NH2 (peptide)”, in assay [1], the pIC50 Category (Activity) is above 8 pIC50. The pIC50 Category (FACS) in assay [2] was above 8 pIC50.
In the case of “DOTA-Ttds-Nle-[Cys(3MeBn)-Pro-Pro-Thr-Glu-Phe-Cys]-Asp-Pamb-Arg-NH2 (peptide)”, the pIC50 Category (Activity) in assay [1] is above 8 pIC50. In addition, the pIC50 Category (FACS) in assay [2] is above 8 pIC50.
On to “H-Met-[Cys(3MeBn)-Pro-Pro-Thr-Glu-Phe-Cys]-Asp-His-Phe-Arg-Asp-Ttds-Lys(Bio)-NH2 (peptide)”, for which, in assay [1], the pIC50 Category (Activity) is above 8 pIC50. Also, the pIC50 Category (FACS) in assay [2] is above 8 pIC50.
In the case of “Hex-[Cys(3MeBn)-Pro-Pro-Thr-Glu-Phe-Cys]-Bal-OH (peptide)”, the pIC50 Category (FACS) in assay [2] was above 8 pIC50.
Turning to “Hex-[Cys(3MeBn)-Pro-Pro-Thr-Gln-Otf-Cys]-NH2 (peptide)”, in assay [1], the pIC50 Category (Activity) was above 8 pIC50.
For “Hex-[Cys(3MeBn)-Pro-Pro-Thr-Ala-Phe-Cys]-NH2 (peptide)”, the pIC50 Category (Activity) in assay [1] is below 6 pIC50.
As for “Hex-[Cys(3MeBn)-Pro-Pro-Thr-Glu-Phe-Cys]-Pamb-Arg-NH2 (peptide)”, the pIC50 Category (Activity) in assay [1] is above 8 pIC50.

The record behind these values is patent US20220315554A1, “COMPOUNDS COMPRISING A […] LIGAND AND USE THEREOF” (priority 2019, published 2022).
